Measurements as given in the nanobody polyreactivity screen of Harvey et al. (2022).

Assay: yeast display, Sf9 membrane polyspecificity reagent, FACS + sequencing; frameworks hold sequencing errors
In short: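 Galactose-induced (36–48 hours) yeast carrying a synthetic nanobody display library were exposed to 10% biotinylated, detergent-solubilized Sf9 membrane reagent at 4 °C for 1 hour. FACS followed streptavidin microbead enrichment, using low and high (top ~1%) gates for expression (anti-HA) and reagent binding (streptavidin). Colony PCR, MiSeq 2 × 250 sequencing and CDR-length filtering followed. Labels for polyreactivity reflect the gate of origin.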

| Sequence | polyreactivity (PSR sort gate) |
| --- | --- |
| QDQLVESAGGLVQAGGSLRLSCAASGRTFYFYTMGWYRQAPGKESELVATAITSGGSTNYADSVKGRFTISRDNAKNTVYLQMNSLKPEDTAVYYCAAVPTEFGNRLEYDYWGQGTQVTVSS | low polyreactivity |
| QVQLVESGGGLVQAGGSLRLSCAASGSTFGSNALGWYREAPAKERELVAAIDANCGSTYYADSVKGRFTISRDNAKNTVYLQMHSQKQEDTAVYYCAAAGYCYYYVPNDYWGQGTQVTVSS | low polyreactivity |
| QVQLVESGGGLVQAGGSLRLSCAASGRIFTRYAMGWYCQAPGNDRELVAVIRDGSTYYADSVKGRFTISRDNGKNTVYLQMNSLKPEDTAVYYCRYDIWDWWSGAYDYWGQGTQVTVSS | low polyreactivity |
| QVQLVESGGGFVQAGGSLRLSCAASGFIFYQYAMGWYRQAPGKERELVAAISWGGGSTYYADSVKGRFTISRDNAKNTVYLQMNSLKQEDTAVYYCNTDSAPYYWLSDNYDSCGQGTQVTVSS | low polyreactivity |
| QVQLVESGGGLVQAGGSLRLSCAASGRTYVFYVMGWYRQAPGKERELVASISRSGGSTYYADSVKGRFTISRDNAKNTVYLQMNSLKPEDTAVYYCAADQLYYGERDYIWGYYYWGQGTQVTVSS | low polyreactivity |
| QVQLVESGGGVVQAGGSLRLSCAAYRSIFLFKAMGWYRQATGKERELVAAINRDDSTYYADSVKGRFTISRDNAKNTVYLQMNSLKPEDTAVYYCAAPVLHASYGYGYWGQGTQVTVSS | low polyreactivity |
| QVQIVESRGGLVQAGGSLRLSCAASGSNLHYYTMGWYRQAPGNEREFVAGISWSGGRTYYADSVKGRFTISRDNAKNTVYFQMNSRKPEDTAVYYCNRQARRGFHRYHLYGYGYWGQGTQVTVSS | high polyreactivity |
| QVQLVESGGGLVQAGGSLRLSCAASGRIFRLYAMGWYRQAPGKERELVATITSGGTYYADSVKGRFTISRDNAKNTVYLQMNSLKPEDTAVYYCTARRRLRYDYWGQGTQVTVSS | low polyreactivity |
| QVQLVESGGGLVQAGGSLRLSCAASGFIFDRYAMGWYRQAPGKERELVAAISWTGGSTYYADSVKGRFTISRDNAKNTVYLQMNSLKPEDTAVYYCAVEYSLVYWSGVVDLGYWGQGTQVTVSS | high polyreactivity |
| HVQLVESGGGLVQAGGSLRLSCAASGSILDGKALGWYRQAPGKERERVAGISESDGSTNYADSVKGRFTISRDNAKNTVYLQMNSLKPEDTAVSYCAADIWTSGDIPYDYWGQGTQVTVSS | low polyreactivity |
| QVQLVESGGGLVQAGGSLRLSCAASGFTFTDYAMGWYRRAPGKESELVAAISSGGSTNYADSVKGRFTISRDNAKNTVYLQMNSLKPEDTAVYYCAAYYVYRAPVRYEYWGQGTQVTVSS | high polyreactivity |
| QVQLVESGGGLVQAGGSLRLSCAASGFTFSHYAMGWYRQAPGKEMELVAAITWSGGSTYYADSVKGRFTISRDNAKNTVYLQMNSLKPEDTAVYYCAAESYLDGGDYWGQGTQVTVSS | high polyreactivity |
| QVQLVESGGGLVQAGGSLRLSCAASGRIFRRYAMGWYRQAPGKEREFVAAISYGGGSTYYADSVKGRFTISRDNAKNTVYLQMNSLKPEDTAVYYCNADEVVWGYNYWGQGTQVTVSS | low polyreactivity |
| QVQLVESGGGLVQAGGSLRLSCAASGFTFRINAMGWYRQAPGKERELVAVITGSGTSTYYADSVKGRFTISRDNAKNTVYLQMNSLKPEDTAVYYCAKRGFISQKYYYWGQGTQGTVSS | high polyreactivity |
| QVQLVESGGGLVQAGGSLRLSCAASGFIFLGYAMGWYRQAPGKERELVAAISSDSDTNYADSVKGRFTISRDNAKNTVYLQMNSLKPEDTAVYYCNADIDSYREMDYWGQGTQVTVSS | low polyreactivity |
| QVQLVESGAGLVQAGGSLRLSCAASGRTFGRYAMAWYRQAPGKERELVAAINNGGGTYYADSVKGLFTISRDNAKNTVYLLINSLYPEDTAVYYCAAATRKRVGSYYYWGQGTQVTVSS | high polyreactivity |
| QVHLVESGGGLVQAGGSLRLSCAASGLILGHYTMGWYRQAPGKERELVAAITSDGGSTYYADSVMGRFTISRDNAKNTVYLQMNSLKPEDTAVFYCAADLPAYTGYESDYWGQGTQVTGSS | low polyreactivity |
| QVQLVESGGGLVKAGGSLRLSCAASGYTFGKYAMGWYRQAPGKERELVAAISWSGGSTYYADSVKGRFRISRDNAKNTVYLQMNSLKPEDTAVYYCNKGYFGRYGYWGQGTQVTVSS | high polyreactivity |
| QVQLVESGGGLVQAGGSLRLSCAASGRTLGPYTMGWYRQAPGKERELVAVISSRTGRTYYADSVKGRFTISRDNAKNTVYLQMNSLKPEDTAVYYCNAGGRYHAPSGDYWGQGTQVTVSS | low polyreactivity |
| QVQLVESGGGLVQAGGSLRLSCAASGFIYRLNAMGWYRQAPGKERELVAAISTYADSVKGRFTFSRDNAKTTVYLQMNSLKPEDTAVYYCAKDYTDSYAYRTGFDYWGQGTQVTVSS | low polyreactivity |
| QVQLVESGGGLVQAGGSLRLSCAASGSIFPYYAMGWYRKAPGKERELVAAISSSGGSTTYADSVKGRFTISRDHAKNTVYLQMNSLKPEDTAVYYCAALTYRRSSGGFDYWGQGTQVTVSS | high polyreactivity |
| QVHLVDSGGGLVQAGGSLRLSCAASGLIFVSYAMGWYRQEPGKERELVASITDSDSSTYYADSVKGRFTISRDNAKNTVYLQMNSLKPEDTAVYYCATGGRTEIWYPTLDYWGQGTQVTVSS | low polyreactivity |

| Sequence | polyreactivity (PSR sort gate) |
| --- | --- |
| QVQLVESGGGLVQAGGSLRLSCAASGRTFTYYAMGWYRQAPGKERKLVAAISQRGGGTYYADSVKGRFTISRDNAKNTVYLQMNSLKPEDTAVYYCAARWRLSGYDYWGQGTQVTVSS | high polyreactivity |
| QVQLVESGGGLVQAGGSLRLSCAASGSIFVVYAMGWYRQAPGKERELVAVITDDGSTYYADSVKGRFTISRDNAKNTVYLQMNSLKPEDTAVYYCAAEGAATPDFGSWYYYWGQGTQVTVSS | low polyreactivity |
| QVQLVESGGGLVQAGGSLRLSCAASGRTFRDNPMGWYRHAPGKERELVAAISGRGSSTYYADSVKGRFTIARDNAKKTVYLQMNSLKPEDTAVYYCAALPASVRRPGWHDYWGQGTQVTVSS | high polyreactivity |
| QVQLVESGGVLVQAGGSLRLSCAASGSAFRENDMGWYRQAPGKERELVAAITFSGGSTYADSVKGRFTISRDIAKNTVYLQMNSLKPEDSAVYYCSADTLPAEYEYDYWGQGTQVTVSS | low polyreactivity |
| QVQLVESGGRLVQAGGSLLLSCAASGRIFRLYAMGWNTQAPGKERQLVASISSTGRTNYADSVKGRFTISRDNAKNTVYLQMNCLKPEDTAVYYCNAAVIYRYSQWDYGYWGLGTQVTVSS | high polyreactivity |
| QVHLVESGGGLVQAGGSLRLSCAASGFTFNRYAMGWYRQAPGKERELVATISSGGNTNYADSVKGRFTISRDNAKKTVYLQMNSLKPEDTAVYYCNADRWFHYYSYNYWGQGTQVTVSS | high polyreactivity |
| QVQLVESGGGLVQAGGSLRLSCAASGRTFRYKAMGWYRQAPGKERELVAAITWNGGRTYYADSVKGRFTISRDNAKNTVYLQMNSLKPEDTAVYYCAAQGTRVDRYPKYDYWGQGTQVTVSS | high polyreactivity |
| QVQLVESGGGLVQAGGSLRLSCAASGLTFPSNAMGWYRQAPGKERELVAAISKRGGRKYYADSVKGRFTISRDNAKNTVYLQMNSLKPEDTAVYYCATPYAYPGTVQYARYNYWGQGTQVTVSS | high polyreactivity |
| QVQHVESVVGLVQAGVSLPLSGASSGYIFLENAMGWYRQATGKERELDAAITVSGGGTYYADSVKGRFTISRDNAKITVYLQMNSLKPEDTAVYYCAADEDNPWLWFYYWGLGTQVTVSS | low polyreactivity |
| QVQLVESGGGLVQAGGSLRLSCAASVSTFAYYAMGWYRQAPGKERELVAVISVSGDGTSTYYADSVKGRFTISRDNAKNTVYLQMNSLKPEDTAVYNCAAEQVLVGGHTYYLTYDYWGQGTQVTVSS | low polyreactivity |
| QVQLVESGGGLVQAGGSLLLSCAASGSTFYYNAMGWYRQATGKERELVARISRSGGSTYADSVKGRFTISRDNAKNTVYLQMNSLKPEDTAVYYCNADAYGTPEFTSYAVRYDYWGQGTQVTVSS | low polyreactivity |
| QVQLVESGGGLVQAGGSHRLSCAASGSTFVRNAMGWYRPAPAKERGLVAGISTSGGRTYYADSVKGRFTISRDNAKNTVYLQMNSLKPEDTAVYDCAVLAWRSIAYDKYDYWGQGTQVTVSS | high polyreactivity |
| QVQLVESGGGLVQAGGSLRLSCAASGRIFTSNAMGWYRQAPGKERELVAAISSSSGSTYYADSVKGRFTISRDNAKNTVSLQMNSLKPEDTAVYYCAARTWRVSGTYKYDYWGQGTQVTVSS | low polyreactivity |
| QVQLVESGGGLVQAGGSLRLICAASGSTFIWNSMGWYRQAPGKERELGATITGSGDRTTYADSVKGRFTISRDNAKNTVYLQMNSLKPEDTAVYYCAGDAYRWWVRYDYWGQGTQVTVSS | low polyreactivity |
| QVQLVESGGGLVQAGGSLRLSCAASGYTFYANAMGWYRQAPGKEREFVASITWSGGSTYYADSVKGRFTISRDNAKNTVYLQMNSLKPEDTAVYYCADESWFKYDYWGQGTQVTVSS | low polyreactivity |
| QVQLVESGGGLVQAGGSLRLSCAASGIIFTYAMGWYRQAPGKERELVAAIDWRGGRTYYADSVKGRFTISRDNAKNNVYLQMNSLKPEDTAVFFCAARLPGGTYYWGQGTQVTVSS | high polyreactivity |
| QVQLVESGGGLVQAGGSLRLSCAASGFIFDTYAMGWYRQAHGKERELVAAIRWSGGRTYYGDSVKGRFTISRDNAKNTVYLQMNSMKPEDTAVYYCNVVVRYPYAYDYWGQGTQVTVSS | high polyreactivity |
| QVQLVESGGGLVQAGGSLRLSCSASGSIYSYYTMGSYIQAPGKERELVAAITGSGGRTYYADSVKGRFTISRDNAKNTVYLQMNSLKQEDTAVYYCNADRHYVPYYSRPRYIPYDYWGQGTQVTVSS | high polyreactivity |
| QVQLVESGGGLVQAGGSLRLSCAASGRIVDIYAMGWYRQAPGTERELVAAITWRGGSTYYADSVKGRFTISRDNAKNTVYLQMNSLKPEDTAVYYCAVDFFTPRGSYYWGQGTQVTVSS | low polyreactivity |
| QVQLVESGGGLVQAGGSLRLSCAASGYTFFKNAMGWYRQAPGKERELVAAISYSGGRTYYADSVKGRFTISRDNAKNTVYLQMNSLKPEDTAVYYCAKATRVITDDGSYGYWGQGTQVTVSS | high polyreactivity |
| QVQLVESGGGLVQAGGSLRLSCAASGSTFLYYTMGWYRQAPGKERELVAAITGSGTSTYYADSVKGRFTISRDNAKNTVYLQMNSLKPEDTAVYYCAARGHGRLYYWGQGTQVTVSS | high polyreactivity |
